Laboratory results: PMC9337824

Experiments:
Ligelizumab = test: SPR; IgG Fc antibodies covalently coupled to the sensor chip captured the anti-IgE mAbs (ligelizumab: Creative Biolabs, TAB755); Expi293-expressed human full-length IgE injected at 0.312–50 nM
Omalizumab = test: as above
[1] = biological target: CD23 on SKW6.4 B lymphoma cells (human (endogenous in SKW6.4)) (UniProt P06734); test: flow cytometry on cells; Alexa Fluor 647-conjugated UB-221, ligelizumab (UBP lot) or omalizumab at 0 to 10 μg/mL mixed with an equal volume of 15 μg/mL human IgE in PBS, 1 hour at room temperature; added to CD23^+ SKW6.4 cells for 30 minutes at 4°C
UniProt P06734, sequence (P06734 whole entry): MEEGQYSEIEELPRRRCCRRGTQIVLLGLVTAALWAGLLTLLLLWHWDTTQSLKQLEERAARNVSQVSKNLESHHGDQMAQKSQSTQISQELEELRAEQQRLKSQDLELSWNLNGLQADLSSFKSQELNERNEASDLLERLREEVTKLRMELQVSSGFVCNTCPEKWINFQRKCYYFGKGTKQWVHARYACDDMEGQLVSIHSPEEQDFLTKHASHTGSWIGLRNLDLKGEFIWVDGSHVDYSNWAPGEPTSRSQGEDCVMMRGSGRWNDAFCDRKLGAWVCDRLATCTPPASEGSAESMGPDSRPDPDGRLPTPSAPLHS

[2] = biological target: IgE in sera of patients with atopic dermatitis (human (endogenous in patients' sera)); test: ELISA; sera of AD patients with high basal IgE (>24,000 ng/mL, n = 10) incubated 1 hour at room temperature with mAb at 0–75,000 ng/mL; remaining free IgE measured on plates coated with FcεRIα-Fcγ
IgE in sera of patients with atopic dermatitis (human (endogenous in patients' sera)), sequence (P01854 whole entry): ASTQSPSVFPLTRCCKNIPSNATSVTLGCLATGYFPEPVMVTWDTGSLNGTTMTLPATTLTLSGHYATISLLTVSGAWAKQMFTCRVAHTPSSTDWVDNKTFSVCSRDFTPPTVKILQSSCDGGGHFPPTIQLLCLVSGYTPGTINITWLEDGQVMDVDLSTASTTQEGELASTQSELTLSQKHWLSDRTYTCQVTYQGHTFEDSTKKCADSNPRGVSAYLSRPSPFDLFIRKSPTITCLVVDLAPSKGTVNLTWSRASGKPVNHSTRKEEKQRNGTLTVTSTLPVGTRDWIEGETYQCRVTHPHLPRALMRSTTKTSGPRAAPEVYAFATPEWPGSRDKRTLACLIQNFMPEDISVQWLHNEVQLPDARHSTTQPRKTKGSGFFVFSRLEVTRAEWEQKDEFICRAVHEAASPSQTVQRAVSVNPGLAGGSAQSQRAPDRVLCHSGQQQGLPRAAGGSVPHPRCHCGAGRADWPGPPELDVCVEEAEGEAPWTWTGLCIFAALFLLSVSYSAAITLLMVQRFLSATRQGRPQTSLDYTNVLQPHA

[3] = biological target: IgE in sera of patients with atopic dermatitis (human (endogenous in patients' sera)); test: ELISA; sera of AD patients with low basal IgE (<4,800 ng/mL, n = 9) incubated 1 hour at room temperature with mAb at 0–4,000 ng/mL (ligelizumab: Creative Biolabs TAB-755); remaining free IgE measured on plates coated with FcεRIα-Fcγ
[4] = biological target: CD23-bound IgE on SKW6.4 cells (human | human (endogenous in SKW6.4)) (UniProt P01854); test: flow cytometry on cells; CD23^+ SKW6.4 cells with 15 μg/mL human IgE for 30 minutes at 4°C, washed, then UB-221, ligelizumab (UBP lot) or omalizumab at 0–10 μg/mL in PBS for 30 minutes at 4°C; Brilliant Violet 421 anti-human IgG Fc

“Expi293-expressed human full-length IgE (from UniProt P01854 1-546) (natural protein)” was tested, and the Kd (Ligelizumab) was 0.016 nM and the Kd (Omalizumab) was 0.23 nM.

For “Preformed ligelizumab-IgE complex (from UniProt P01854 1-546)”, the maximum binding MFI [1] was 191 MFI.

Molecule “Preformed UB-221–IgE complex (from UniProt P01854 1-546)” has a maximum binding MFI [1] of 1280 MFI.

B1: Ligelizumab (antibody, V domains shown)
VH: QVQLVQSGAEVMKPGSSVKVSCKASGYTFSWYWLEWVRQAPGHGLEWMGEIDPGTFTTNYNEKFKARVTFTADTSTSTAYMELSSLRSEDTAVYYCARFSHFSGSNYDYFDYWGQGTLVTVSS
VL: EIVMTQSPATLSVSPGERATLSCRASQSIGTNIHWYQQKPGQAPRLLIYYASESISGIPARFSGSGSGTEFTLTISSLQSEDFAVYYCQQSWSWPTTFGGGTKVEIK
In the case of B1, the EC90 [2] is reported as greater than 25 µg/mL, the EC90 [3] is reported as 1 µg/mL and the maximum binding MFI [4] is reported as 503 MFI.
